Source: publication PMC10092738, “Structural insights into the mechanism of adaptive ribosomal modification by Pseudomonas RimK” (Proteins, 2022)

Key:
RimKPA [1] = target: T1, RimKPA (Pseudomonas aeruginosa, UniProt Q9HTZ2); test: X-ray crystal structure, […] A; settings: ATP binding site; co-purified from expression host; weak density, interpreted as ADP
T1 construct: gene rimK; full ORF in pET29a, C-terminal hexahistidine tag, E. coli BL21 (DE3) pLysS; tetramer
T1 sequence (Q9HTZ2 1-301): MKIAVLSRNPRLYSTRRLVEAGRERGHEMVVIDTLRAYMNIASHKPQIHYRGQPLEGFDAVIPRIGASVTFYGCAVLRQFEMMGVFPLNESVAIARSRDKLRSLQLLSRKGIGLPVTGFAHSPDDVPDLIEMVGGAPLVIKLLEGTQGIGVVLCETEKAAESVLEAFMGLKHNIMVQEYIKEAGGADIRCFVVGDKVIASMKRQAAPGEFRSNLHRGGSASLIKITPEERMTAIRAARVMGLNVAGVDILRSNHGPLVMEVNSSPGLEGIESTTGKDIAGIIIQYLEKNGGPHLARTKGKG

RimKPS = target: T2, RimKPS (Pseudomonas syringae group genomosp. 3, UniProt Q88AZ9); test: PK/LDH-coupled ATPase assay, NADH oxidation at […] nm; assay type: biochemical; settings: activator; 25 uM cdG, 1.5 uM RimK, ATP as substrate; pH 9.0, 20 mM MgSO4, 25 C
T2 construct: gene rimK; full ORF in pET29a, C-terminal hexahistidine tag, E. coli BL21 (DE3) pLysS; tetramer
T2 sequence (Q88AZ9 1-301): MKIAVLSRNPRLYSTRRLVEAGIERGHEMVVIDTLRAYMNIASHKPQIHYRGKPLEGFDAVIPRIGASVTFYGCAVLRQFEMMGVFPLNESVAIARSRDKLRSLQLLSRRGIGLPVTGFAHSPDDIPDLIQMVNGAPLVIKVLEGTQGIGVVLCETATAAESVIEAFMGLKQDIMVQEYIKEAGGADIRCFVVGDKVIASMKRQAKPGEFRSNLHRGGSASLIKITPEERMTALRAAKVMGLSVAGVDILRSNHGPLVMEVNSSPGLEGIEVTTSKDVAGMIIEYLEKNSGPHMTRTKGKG

RimKPA [2] = target: T1, RimKPA; test: as above; assay type: biochemical; settings: activator; 25 uM cdG, 2.5 uM RimK, ATP as substrate; pH 9.0, 20 mM MgSO4, 25 C
[3] = target: P. aeruginosa PAO1 RimK (P. aeruginosa PAO1) (UniProt B7V3U4); test: crystal structure; RimKPA at 17 mg/ml, sitting-drop vapor diffusion at 293 K, 0.2 M potassium sodium tartrate, 0.1 M bis-tris propane pH 7.5, 20% PEG 3350; 2.4 Å, P2(1), eight copies in the asymmetric unit
[4] = target: P. syringae pv. tomato DC3000 RimK (P. syringae pv. tomato DC3000) (UniProt Q88AZ9)
purified protein [5] = substrate: Nc1ncnc2c1ncn2[C@@H]1O[C@H](COP(=O)(O)OP(=O)(O)OP(=O)(O)O)[C@@H](O)[C@H]1O; test: purified protein; settings: 100 mM Tris-HCl pH 9.0, 20 mM MgSO4, 25 C, 1.5 uM RimK, no RimB
[6] = target: the molecule itself; test: crystal structure; RimKPS at 3.7 mg/ml, sitting-drop vapor diffusion at 293 K, 0.2 M calcium chloride, 0.1 M HEPES pH 7.0, 20% PEG6000; ATP and cdG in the cryoprotectant; 2.9 Å, P1, 16 copies in the asymmetric unit
purified protein [7] = substrate: Nc1ncnc2c1ncn2[C@@H]1O[C@H](COP(=O)(O)OP(=O)(O)OP(=O)(O)O)[C@@H](O)[C@H]1O; test: purified protein; assay type: biochemical, Pseudomonas fluorescens; settings: 100 mM Tris-HCl pH 9.0, 20 mM MgSO4, 25 C, 1.5 uM RimK, no RimB

Nc1ncnc2c1ncn2[C@@H]1O[C@H](COP(=O)(O)OP(=O)(O)O)[C@@H](O)[C@H]1O [ADP] was tested, and the “X-ray crystal structure, 2.4 A” value (RimKPA [1]) was “ADP and glutamate, of presumed cellular origin, were resolved in the RimKPA structure”.

Nc1nc2c(ncn2[C@@H]2O[C@@H]3COP(=O)(O)O[C@H]4[C@@H](O)[C@H](n5cnc6c(=O)[nH]c(N)nc65)O[C@@H]4COP(=O)(O)O[C@H]3[C@H]2O)c(=O)[nH]1 [cyclic-di-GMP] was tested, and the “PK/LDH-coupled ATPase assay, NADH oxidation at 340 nm” value (RimKPS) was “the addition of cdG stimulated ATPase activity for both proteins” and the “PK/LDH-coupled ATPase assay, NADH oxidation at 340 nm” value (RimKPA [2]) was “the addition of cdG stimulated ATPase activity for both proteins”.

With “P. aeruginosa PAO1 RimK (from UniProt B7V3U4 1-301) (enzyme)” the stoichiometry N [3] was 4.

RimB of P. syringae (enzyme) showed a RimKPS ATPase activity (linked PK/LDH assay) against RimBPS 0–1.2 mM, fitted K m [4] of 120 µM and a RimKPS ATPase activity (linked PK/LDH assay) against RimBPS 0–1.2 mM, fitted V max [4] of 692.

B1: RimKPA (Pseudomonas aeruginosa PAO1) (protein)
chain: T1 sequence (Q9HTZ2 1-301)
B1 showed a Km (purified protein [5]; a separate series in Figure S1 prints K m = 2.1 mM) of 300 µM.

B2: P. syringae pv. tomato DC3000 RimK (enzyme, UniProt Q88AZ9 1-301, looked up)
chain: T2 sequence (Q88AZ9 1-301)
notes: RimK, ATP-dependent glutamate ligase, P. syringae pv. tomato DC3000; open reading frame of rimK cloned into pET29a; Tetramer in the crystal; 16 copies in the asymmetric unit; also called RimKPS; RimKPs; source: E. coli BL21 (DE3) pLysS, purified (His-Trap Excel column)
For B2, the “stoichiometry N” value [6] was 4 and the Km (purified protein [5]; a separate series in Figure S1 prints K m = 1.85 mM) was 1000 µM.

B3: RimKPF (Pseudomonas [fluorescens] SBW25) (protein)
chain: MKIAVLSRNPRLYSTRRLVEAGVERGHEMVVIDTLRAYMNIASHKPQIHYRGKPLEGFDAVIPRIGASVTFYGCAVLRQFEMMGVFPLNESVAIARSRDKLRSLQLLSRRGIGLPVTGFAHSPDDIPDLIDMVNGAPLVIKVLEGTQGIGVVLCETATAAESVIEAFMGLKQNIMVQEYIKEAGGADIRCFVVGDKVIAAMKRQAKPGEFRSNLHRGGSASLIKITPEERMTALRAAKVMGLSVAGVDILRSNHGPLVMEVNSSPGLEGIETTTGKNVAGIIIEHLEKNGGPNMTRTKGKG
notes: purified recombinant RimK
B3 gave a Km (purified protein [7]) of 800 µM.
